Experiment [1] deals with T1, Human TNFα (Homo sapiens, UniProt P01375). The experiment is described as follows: Single cycle kinetics by surface plasmon resonance. Type of experiment: binding. Also noted: made in house. The method, then: For single cycle kinetics profiling of compound (1) to either directly immobilised TNFα or CA1974-captured TNFα surface plasmon resonance was performed at 25° C. using a BIAcore T200 (GE Healthcare). Human TNFα was tethered onto flow-channel (Fc)2 (2000 RU). CA1974 IgG (>10,000 response units) was tethered onto Fc3,4 and Fc1 blank immobilisation on a CMS Sensor Chip (GE Healthcare) via amine coupling chemistry. The surface was allowed to stabilise in HBS-P buffer (10 mM HEPES, pH 7.4, 0.15 M NaCl, 0.0005% (v/v) surfactant P20-GE Healthcare)+5% DMSO was used as the running buffer. Human TNFα was flowed over Fc4 to a capture level of ˜2,000 RU. Compound (1) was flowed over all four flow cells in series (1.875 μM, 3.75 μM, 7.5 μM and 30 μM) at 100 μl/min. Double referenced background-subtracted binding curves were produced using the T200 Evaluation software (version 1.0) following standard procedures.
Target sequence in this assay (P01375 77-233 limits assumed): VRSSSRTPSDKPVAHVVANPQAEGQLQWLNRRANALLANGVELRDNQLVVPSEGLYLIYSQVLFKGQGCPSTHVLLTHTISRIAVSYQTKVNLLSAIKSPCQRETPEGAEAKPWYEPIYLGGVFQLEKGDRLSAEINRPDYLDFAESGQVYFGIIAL
For orientation: Surface plasmon resonance follows binding to a sensor surface in real time, without labels.

A further experiment deals with T2, soluble form of TNFα (Homo sapiens, UniProt P01375).
T2 construct: the immobilised soluble form of CD40L and the soluble form of TNFα
Kind of experiment: SPR on Biacore 4000 against immobilised soluble TNFα. It is filed as binding. The conditions noted are these: concentration of up to 100 μM. The method, then: In another experiment, BIO8898 was tested against the immobilised soluble form of CD40L and the soluble form of TNFα by SPR on a Biacore 4000 machine.

A further experiment has as its system membrane-bound TNFα. The experiment is described as follows: FACS assay, engineered NS0 cell line overexpressing membrane TNFα. Type of experiment: cell-based. The conditions noted are these: Fab fragments. As for the experimental part:
An engineered NS0 cell line, which overexpresses membrane TNFα, due to knock-out of the TACE cleavage site was incubated with 0.001-10 μM compound (1) or 0.1% DMSO for 1 h at 37° C. Cells were washed, fixed and stained with antibody Fab fragments at 0.01 or 0.1 μg/ml for 1 hour on ice. (Secondary antibody was anti-mouse Fab-DyeLight488 from Jackson ImmunoResearch).

Experiment [2] addresses T1, Human TNFα. Kind of experiment: FACS assay, HEK JumpIn cells overexpressing TNF-RI, receptor-bound TNFα. Type of experiment: cell-based. Also noted: host or cells: HEK JumpIn cells (express the partner TNF-RI only). The conditions noted are these: antibody at 1 and 10 μg/ml. As for the experimental part:
Recombinant antibodies were also tested for binding to compound-distorted TNFα in a FACS assay using human embryonic kidney (HEK) JumpIn cells, which overexpress TNF-RI after induction with doxycycline at 1 μg/ml for 2.5 hours. HEK cells were trypsinised and incubated for 2 h in medium to allow recovery of digested TNFRI levels. Human TNFα at 2 μg/mL was pre-incubated with 40 μM compound (1) or 0.4% DMSO for 1 h at 37° C. The pre-incubation mix was added to the cells for 1 h on ice (dilution 1:4, final concentrations: 0.5 μg/mL human-TNFα+/−[…] or 0.1% DMSO). […] (Secondary antibody: anti-mouse-Alexa488), before analysis for receptor-bound TNFα.
Target sequence in this assay (P01375 77-233 limits assumed): as above
Target sequence in this assay (P19438 30-455 partner): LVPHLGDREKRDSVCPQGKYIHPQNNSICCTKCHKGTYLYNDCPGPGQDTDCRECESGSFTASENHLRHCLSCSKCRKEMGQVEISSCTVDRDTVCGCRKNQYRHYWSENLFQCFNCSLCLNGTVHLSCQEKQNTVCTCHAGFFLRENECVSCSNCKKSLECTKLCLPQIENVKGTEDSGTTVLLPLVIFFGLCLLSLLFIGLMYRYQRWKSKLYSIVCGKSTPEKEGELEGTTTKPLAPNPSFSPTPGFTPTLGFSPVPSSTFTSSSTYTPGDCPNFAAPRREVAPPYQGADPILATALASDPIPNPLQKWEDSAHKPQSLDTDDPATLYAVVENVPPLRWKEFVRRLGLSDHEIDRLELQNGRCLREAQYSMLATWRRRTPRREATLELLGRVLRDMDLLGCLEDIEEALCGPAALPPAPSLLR

In experiment [3] the target is human TNFα complexed with compound (1) (Homo sapiens, UniProt P01375). Kind of experiment: Size exclusion chromatography (HPLC) of mouse Fab with TNFα-compound complex. Type of experiment: binding. For orientation: In gel filtration, larger molecules generally elute earlier.

“Also recorded” adds a separate entry of the source.

membrane-bound TNFα, sequence (P01375 90-233 limits assumed): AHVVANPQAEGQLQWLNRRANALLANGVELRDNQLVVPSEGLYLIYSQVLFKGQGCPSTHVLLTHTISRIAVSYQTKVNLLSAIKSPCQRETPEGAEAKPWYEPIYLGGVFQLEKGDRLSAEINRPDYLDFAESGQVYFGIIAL
T2 sequence (P01375 77-233 limits assumed): as the sequence (P01375 77-233 limits assumed) above
human TNFα complexed with compound (1), sequence (P01375 77-233 limits assumed, one chain of several): as the sequence (P01375 77-233 limits assumed) above

`Cc1ccc(C)c(Cn2c(C(O)c3ccncc3)nc3ccc(-c4cnn(C)c4)cc32)c1` (centres unmarked) [compound (1)]: the binding kinetics profile entry is listed as “fast on-fast off” on Human TNFα [1] (TNFα captured via antibody CA1974) and “slow on-slow off” on Human TNFα [1] (directly immobilised apo-TNF).

Take `O=C(NCc1cccc(-c2ccccc2)c1)c1cc(-c2cc(C(=O)NC(C(=O)O)C3CCCCC3)nc(C(=O)N3CCCC3CN3CCCC3)c2)cc(C(=O)N2CCCC2CN2CCCC2)n1` (centres unmarked) [BIO8898]: the “binding to TNFα” value on soluble form of TNFα is given as “not to bind; also recorded: no binding”.

B1: CA185_01979: rat-derived conformation-selective antibody to TNFα-compound complex, LCVR SEQ ID NO: 22, HCVR SEQ ID NO: 23; used as mouse IgG or mouse Fab (antibody, V domains shown)
VH: EVHLVESGPGLVKPSQSLSLTCSVTGYSITNSYWDWIRKFPGNKMEWMGYINYSGSTGYNPSLKSRISISRDTSNNQFFLQLNSITTEDTATYYCARGTYGYNAYHFDYWGRGVMVTVSS
VL: DIQMTQSPASLSASLEEIVTITCQASQDIGNWLSWYQQKPGKSPHLLIYGTTSLADGVPSRFSGSRSGTQYSLKISGLQVADIGIYVCLQAYSTPFTFGSGTKLEIK
modifications: HCVR of 1979; LCVR of 1979
notes: used as mouse IgG or mouse Fab
Regarding B1, the “staining with the DMSO controls” value in the experiment on membrane-bound TNFα (cells incubated with 0.1% DMSO) is reported as “no staining”. Also, the “staining / recognition of membrane TNF” value with membrane-bound TNFα (cells incubated with compound (1)) was “only recognise TNF which has been pre-incubated with compound (1)”. For the same molecule, the “staining with the DMSO control” value with Human TNFα [2] (TNFα pre-incubated with DMSO) is on record as “no staining”. In the experiment with Human TNFα [2] (TNFα pre-incubated with compound (1)), the “staining / recognition of receptor-bound TNFα” value is on record as “only recognise TNFα which has been pre-incubated with compound (1)”. For the same molecule, in experiment [3], the “stoichiometry Fab : TNFα trimer” value was 1 Fab: 1 TNFα trimer.

The values are drawn from patent US11174311B2, “Antibody against trimeric TNFα complex” (UCB BIOPHARMA SRL, priority 2016, dated 2021).
